Experimental data from IntAct's records for PubMed 27150041.

Molecular target: smu2_caeel smu-2 (UniProt Q9N4U5)
Sequence (Q9N4U5 whole entry): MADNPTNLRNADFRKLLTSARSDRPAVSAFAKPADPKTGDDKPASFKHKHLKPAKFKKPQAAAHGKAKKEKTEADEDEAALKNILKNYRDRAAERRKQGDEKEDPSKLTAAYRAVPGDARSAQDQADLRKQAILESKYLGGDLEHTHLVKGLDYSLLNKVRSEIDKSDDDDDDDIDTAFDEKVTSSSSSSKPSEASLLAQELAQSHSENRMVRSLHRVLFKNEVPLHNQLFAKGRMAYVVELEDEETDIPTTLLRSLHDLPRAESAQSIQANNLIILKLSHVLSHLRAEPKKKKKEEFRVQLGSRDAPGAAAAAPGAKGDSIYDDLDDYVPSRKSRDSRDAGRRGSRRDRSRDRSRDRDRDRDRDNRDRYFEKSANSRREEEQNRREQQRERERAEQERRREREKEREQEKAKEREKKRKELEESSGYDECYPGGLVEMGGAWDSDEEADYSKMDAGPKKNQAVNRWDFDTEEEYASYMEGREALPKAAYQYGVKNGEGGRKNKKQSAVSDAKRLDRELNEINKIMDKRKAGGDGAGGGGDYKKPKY

Chain of Smu-1 suppressor of mec-8 and unc-52 protein (Caenorhabditis elegans), G5EEG7 L96R (G5EEG7 whole entry L96R): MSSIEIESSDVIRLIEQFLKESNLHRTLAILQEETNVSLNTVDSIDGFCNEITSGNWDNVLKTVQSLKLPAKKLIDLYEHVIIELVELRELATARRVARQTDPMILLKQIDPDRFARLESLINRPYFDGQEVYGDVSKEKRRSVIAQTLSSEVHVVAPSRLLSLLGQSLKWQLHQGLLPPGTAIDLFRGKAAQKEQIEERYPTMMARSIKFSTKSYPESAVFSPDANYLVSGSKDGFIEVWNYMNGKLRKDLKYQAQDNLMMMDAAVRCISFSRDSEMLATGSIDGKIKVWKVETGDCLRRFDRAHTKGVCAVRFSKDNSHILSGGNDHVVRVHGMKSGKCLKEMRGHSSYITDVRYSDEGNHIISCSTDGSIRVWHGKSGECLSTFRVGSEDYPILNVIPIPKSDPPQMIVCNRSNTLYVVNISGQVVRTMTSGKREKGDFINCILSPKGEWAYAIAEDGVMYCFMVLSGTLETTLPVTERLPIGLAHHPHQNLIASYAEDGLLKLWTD

“Smu-1 suppressor of mec-8 and unc-52 protein (Caenorhabditis elegans), G5EEG7 L96R” was tested, and the “effect of a mutation on the interaction” value was “disrupting interaction strength”.
